Biological target: SARS-CoV-2 S-protein S1 subunit (SARS-CoV-2)
Assay: ELISA

Work on “human ACE2 extracellular domain, wildtype, Fc-tagged dimeric form (from UniProt Q9BYF1-1 18-615) (Fc fusion)” yielded an EC50 of 10.4 nM.

From PMC8041869
